Patent US20120316071A1 (published 2012)
Read-outs that look alike come from different tables or passages of the source.

Columns and labels:
[1] = molecular target: T1, Recombinant Human DLL4 (delta-like protein 4) (human, UniProt Q9NR61 27-524); assay: ELISA on plate-coated DLL4, 100 nM Fab, signal minus noise
T1 construct: Bought recombinant protein (R&D Systems Cat#1506-D4/CF); also called rHuman DLL4; Delta-like 4

[2] = molecular target: T1, Recombinant Human DLL4 (delta-like …); assay: ECL (MSD) multispot binding assay, DLL4 immobilised, 10 nM Fab, DLL4 signal over blank
[3] = molecular target: T2, Recombinant Human DLL4 (delta-like protein 4) (human, UniProt Q9NR61 27-529); assay: 96-well plate ECL (MSD) binding assay on coated DLL4, 10 nM Fab
T2 construct: Bought recombinant human DLL4 (R&D Systems Cat#1506-D4/CF), coated on the plate; also called rHuman DLL4; Delta-like 4

[4] = molecular target: T2, Recombinant Human DLL4 (delta-like …); assay: ELISA on coated DLL4, 100 nM Fab
[5] = molecular target: T2, Recombinant Human DLL4 (delta-like …); assay: 96-well plate ECL (MSD) binding assay on coated DLL4, 10 nM Fab; remark: listed apart in the source
[6] = molecular target: T2, Recombinant Human DLL4 (delta-like …); assay: ELISA on coated DLL4, 100 nM Fab; remark: listed apart in the source

Binder	ELISA (Signal-Noise) [1]	Signal/Noise [10 nM Fab] [2]	ECL signal [3]	ELISA signal [4]	other results
Fab VH1-46_IGHD6-6*01_IGHJ1*01 S102A/S103P/S104F/H111F G55A & L6_IGKJ1*01 (Fab, V domains shown, Fab made in E. coli: CH1 with His6/Flag tags from Plasmid A, kappa constant region from Plasmid C; also called APFF G55A) VH: QVQLVQSGAEVKKPGASVKVSCKASGYTFTSYYMHWVRQAPGQGLEWMGIINPSAGSTSYAQKFQGRVTMTRDTSTSTVYMELSSLRSEDTAVYYCAREEYAPFSAEYFQFWGQGTLVTVSS VL: not shown	0.02	44.2			
Fab VH1-46_IGHD6-6*01_IGHJ1*01 S102A/S103P/S104F/H111F S54T & L6_IGKJ1*01 (Fab, V domains shown, Fab made in E. coli; CH1 with tags and kappa CL are not included; also called APFF S54T) VH: QVQLVQSGAEVKKPGASVKVSCKASGYTFTSYYMHWVRQAPGQGLEWMGIINPTGGSTSYAQKFQGRVTMTRDTSTSTVYMELSSLRSEDTAVYYCAREEYAPFSAEYFQFWGQGTLVTVSS VL: not shown			57200	0.08	
Fab VH1-46_IGHD6-6*01_IGHJ1*01 S102A/S103P/S104F/H111F/N52L/S54T/G56H (APFF LTH) & L6_IGKJ1*01 (Fab, V domains shown, Fab made in E. coli; CH1 with tags and kappa CL are not included; also called H:APFF LTH & L:wt) VH: QVQLVQSGAEVKKPGASVKVSCKASGYTFTSYYMHWVRQAPGQGLEWMGIILPTGHSTSYAQKFQGRVTMTRDTSTSTVYMELSSLRSEDTAVYYCAREEYAPFSAEYFQFWGQGTLVTVSS VL: not shown					ECL signal [5]: 165000; ELISA signal [6]: 1.1
Fab VH1-46_IGHD6-6*01_IGHJ1*01 S102A/S103P/S104F/H111F N52A & L6_IGKJ1*01 (Fab, V domains shown, Fab made in E. coli: CH1 with His6/Flag tags from Plasmid A, kappa constant region from Plasmid C; also called APFF N52A) VH: QVQLVQSGAEVKKPGASVKVSCKASGYTFTSYYMHWVRQAPGQGLEWMGIIAPSGGSTSYAQKFQGRVTMTRDTSTSTVYMELSSLRSEDTAVYYCAREEYAPFSAEYFQFWGQGTLVTVSS VL: not shown	0.6	721			
Fab VH1-46_IGHD6-6*01_IGHJ1*01 S102A/S103P/S104F/H111F I50A & L6_IGKJ1*01 (Fab, V domains shown, Fab made in E. coli: CH1 with His6/Flag tags from Plasmid A, kappa constant region from Plasmid C; also called APFF I50A) VH: QVQLVQSGAEVKKPGASVKVSCKASGYTFTSYYMHWVRQAPGQGLEWMGAINPSGGSTSYAQKFQGRVTMTRDTSTSTVYMELSSLRSEDTAVYYCAREEYAPFSAEYFQFWGQGTLVTVSS VL: not shown	0.01	9.8			
Fab VH1-46_IGHD6-6*01_IGHJ1*01 S102A/S103P/S104F/H111F G56A & L6_IGKJ1*01 (Fab, V domains shown, Fab made in E. coli: CH1 with His6/Flag tags from Plasmid A, kappa constant region from Plasmid C; also called APFF G56A) VH: QVQLVQSGAEVKKPGASVKVSCKASGYTFTSYYMHWVRQAPGQGLEWMGIINPSGASTSYAQKFQGRVTMTRDTSTSTVYMELSSLRSEDTAVYYCAREEYAPFSAEYFQFWGQGTLVTVSS VL: not shown	1.6	442			
Fab VH1-46_IGHD6-6*01_IGHJ1*01 S102A/S103P/S104F/H111F P53A & L6_IGKJ1*01 (Fab, V domains shown, Fab made in E. coli: CH1 with His6/Flag tags from Plasmid A, kappa constant region from Plasmid C; also called APFF P53A) VH: QVQLVQSGAEVKKPGASVKVSCKASGYTFTSYYMHWVRQAPGQGLEWMGIINASGGSTSYAQKFQGRVTMTRDTSTSTVYMELSSLRSEDTAVYYCAREEYAPFSAEYFQFWGQGTLVTVSS VL: not shown	0.41	462			
Fab VH1-46_IGHD6-6*01_IGHJ1*01 S102A/S103P/S104F/H111F I51A & L6_IGKJ1*01 (Fab, V domains shown, Fab made in E. coli: CH1 with His6/Flag tags from Plasmid A, kappa constant region from Plasmid C; also called APFF I51A) VH: QVQLVQSGAEVKKPGASVKVSCKASGYTFTSYYMHWVRQAPGQGLEWMGIANPSGGSTSYAQKFQGRVTMTRDTSTSTVYMELSSLRSEDTAVYYCAREEYAPFSAEYFQFWGQGTLVTVSS VL: not shown	0.49	637			
Fab VH1-46_IGHD6-6*01_IGHJ1*01 S102A/S103P/S104F/H111F S54A/S59N & L6_IGKJ1*01 (Fab, V domains shown, Fab made in E. coli; CH1 with tags and kappa CL are not included; also called APFF S54A/S59N) VH: QVQLVQSGAEVKKPGASVKVSCKASGYTFTSYYMHWVRQAPGQGLEWMGIINPAGGSTNYAQKFQGRVTMTRDTSTSTVYMELSSLRSEDTAVYYCAREEYAPFSAEYFQFWGQGTLVTVSS VL: not shown			17300	0.1	
Fab VH1-46_IGHD6-6*01_IGHJ1*01 S102A/S103P/S104F/H111F S54A & L6_IGKJ1*01 (Fab, V domains shown, Fab made in E. coli: CH1 with His6/Flag tags from Plasmid A, kappa constant region from Plasmid C; also called APFF S54A) VH: QVQLVQSGAEVKKPGASVKVSCKASGYTFTSYYMHWVRQAPGQGLEWMGIINPAGGSTSYAQKFQGRVTMTRDTSTSTVYMELSSLRSEDTAVYYCAREEYAPFSAEYFQFWGQGTLVTVSS VL: not shown	0.255	122			

The next lines start with results.

ELISA (Signal-Noise) [1]	Signal/Noise [10 nM Fab] [2]	ECL signal [3]	ELISA signal [4]	Binder	other results
		36800	0.04	Fab VH1-46_IGHD6-6*01_IGHJ1*01 S102A/S103P/S104F/H111F S54E & L6_IGKJ1*01 (Fab, V domains shown, Fab made in E. coli; CH1 with tags and kappa CL are not included; also called APFF S54E) VH: QVQLVQSGAEVKKPGASVKVSCKASGYTFTSYYMHWVRQAPGQGLEWMGIINPEGGSTSYAQKFQGRVTMTRDTSTSTVYMELSSLRSEDTAVYYCAREEYAPFSAEYFQFWGQGTLVTVSS VL: not shown	
		41800	0.07	Fab VH1-46_IGHD6-6*01_IGHJ1*01 S102A/S103P/S104F/H111F S54Q & L6_IGKJ1*01 (Fab, V domains shown, Fab made in E. coli; also called APFF S54Q) VH: QVQLVQSGAEVKKPGASVKVSCKASGYTFTSYYMHWVRQAPGQGLEWMGIINPQGGSTSYAQKFQGRVTMTRDTSTSTVYMELSSLRSEDTAVYYCAREEYAPFSAEYFQFWGQGTLVTVSS VL: not shown	
		26300	0.02	Fab VH1-46_IGHD6-6*01_IGHJ1*01 S102A/S103P/S104F/H111F S54R & L6_IGKJ1*01 (Fab, V domains shown, Fab made in E. coli; CH1 with tags and kappa CL are not included; also called APFF S54R) VH: QVQLVQSGAEVKKPGASVKVSCKASGYTFTSYYMHWVRQAPGQGLEWMGIINPRGGSTSYAQKFQGRVTMTRDTSTSTVYMELSSLRSEDTAVYYCAREEYAPFSAEYFQFWGQGTLVTVSS VL: not shown	
		22200	0	Fab VH1-46_IGHD6-6*01_IGHJ1*01 S102A/S103P/S104F/H111F S54V & L6_IGKJ1*01 (Fab, V domains shown, Fab made in E. coli; CH1 with tags and kappa CL are not included; also called APFF S54V) VH: QVQLVQSGAEVKKPGASVKVSCKASGYTFTSYYMHWVRQAPGQGLEWMGIINPVGGSTSYAQKFQGRVTMTRDTSTSTVYMELSSLRSEDTAVYYCAREEYAPFSAEYFQFWGQGTLVTVSS VL: not shown	
		10100	0	Fab VH1-46_IGHD6-6*01_IGHJ1*01 S102A/S103P/S104F/H111F S54P & L6_IGKJ1*01 (Fab, V domains shown, Fab made in E. coli; CH1 with tags and kappa CL are not included; also called APFF S54P) VH: QVQLVQSGAEVKKPGASVKVSCKASGYTFTSYYMHWVRQAPGQGLEWMGIINPPGGSTSYAQKFQGRVTMTRDTSTSTVYMELSSLRSEDTAVYYCAREEYAPFSAEYFQFWGQGTLVTVSS VL: not shown	
		31700	0.02	Fab VH1-46_IGHD6-6*01_IGHJ1*01 S102A/S103P/S104F/H111F S54N & L6_IGKJ1*01 (Fab, V domains shown, Fab made in E. coli; CH1 with tags and kappa CL are not included; also called APFF S54N) VH: QVQLVQSGAEVKKPGASVKVSCKASGYTFTSYYMHWVRQAPGQGLEWMGIINPNGGSTSYAQKFQGRVTMTRDTSTSTVYMELSSLRSEDTAVYYCAREEYAPFSAEYFQFWGQGTLVTVSS VL: not shown	
		47000	0.06	Fab VH1-46_IGHD6-6*01_IGHJ1*01 S102A/S103P/S104F/H111F S54G & L6_IGKJ1*01 (Fab, V domains shown, Fab made in E. coli; CH1 with tags and kappa CL are not included; also called APFF S54G) VH: QVQLVQSGAEVKKPGASVKVSCKASGYTFTSYYMHWVRQAPGQGLEWMGIINPGGGSTSYAQKFQGRVTMTRDTSTSTVYMELSSLRSEDTAVYYCAREEYAPFSAEYFQFWGQGTLVTVSS VL: not shown	
0.39	293			Fab VH1-46_IGHD6-6*01_IGHJ1*01 S102A/S103P/S104F/H111F S57A & L6_IGKJ1*01 (Fab, V domains shown, Fab made in E. coli: CH1 with His6/Flag tags from Plasmid A, kappa constant region from Plasmid C; also called APFF S57A) VH: QVQLVQSGAEVKKPGASVKVSCKASGYTFTSYYMHWVRQAPGQGLEWMGIINPSGGATSYAQKFQGRVTMTRDTSTSTVYMELSSLRSEDTAVYYCAREEYAPFSAEYFQFWGQGTLVTVSS VL: not shown	
0.14	142			Fab VH1-46_IGHD6-6*01_IGHJ1*01 S102A/S103P/S104F/H111F T58A & L6_IGKJ1*01 (Fab, V domains shown, Fab made in E. coli: CH1 with His6/Flag tags from Plasmid A, kappa constant region from Plasmid C; also called APFF T58A) VH: QVQLVQSGAEVKKPGASVKVSCKASGYTFTSYYMHWVRQAPGQGLEWMGIINPSGGSASYAQKFQGRVTMTRDTSTSTVYMELSSLRSEDTAVYYCAREEYAPFSAEYFQFWGQGTLVTVSS VL: not shown	
		28200	0.02	Fab VH1-46_IGHD6-6*01_IGHJ1*01 S102A/S103P/S104F/H111F S54L & L6_IGKJ1*01 (Fab, V domains shown, Fab made in E. coli; CH1 with tags and kappa CL are not included; also called APFF S54L) VH: QVQLVQSGAEVKKPGASVKVSCKASGYTFTSYYMHWVRQAPGQGLEWMGIINPLGGSTSYAQKFQGRVTMTRDTSTSTVYMELSSLRSEDTAVYYCAREEYAPFSAEYFQFWGQGTLVTVSS VL: not shown	
0.02	17.1			Fab VH1-46_IGHD6-6*01_IGHJ1*01 S102A/S103P/S104F/H111F S59A & L6_IGKJ1*01 (Fab, V domains shown, Fab made in E. coli: CH1 with His6/Flag tags from Plasmid A, kappa constant region from Plasmid C; also called APFF S59A) VH: QVQLVQSGAEVKKPGASVKVSCKASGYTFTSYYMHWVRQAPGQGLEWMGIINPSGGSTAYAQKFQGRVTMTRDTSTSTVYMELSSLRSEDTAVYYCAREEYAPFSAEYFQFWGQGTLVTVSS VL: not shown	
